# Test results published in patent US20110091994A1, “Methods for Screening Compounds for Treating and/or Preventing an Hepatitis C Virus Infection” (priority 2008, published 2011).
# B1: SIAH1 (protein, UniProt Q8IUQ4 1-282, looked up)
# E3 ubiquitin-protein ligase …: MSRQTATALPTGTSKCPPSQRVPALTGTTASNNDLASLFECPVCFDYVLPPILQCQSGHLVCSNCRPKLTCCPTCRGPLGSIRNLAMEKVANSVLFPCKYASSGCEITLPHTEKADHEELCEFRPYSCPCPGASCKWQGSLDAVMPHLMHQHKSITTLQGEDIVFLATDINLPGAVDWVMMQSCFGFHFMLVLEKQEKYDGHQQFFAIVQLIGTRKQAENFAYRLELNGHRRRLTWEATPRSIHEGIATAIMNSDCLVFDTSIAQLFAENGNLGINVTISMC
# B2: SECISBP2 (protein, UniProt Q96T21 1-854, looked up)
# Selenocysteine insertion …: MASEGPREPESEGIKLSADVKPFVPRFAGLNVAWLESSEACVFPSSAATYYPFVQEPPVTEQKIYTEDMAFGASTFPPQYLSSEITLHPYAYSPYTLDSTQNVYSVPGSQYLYNQPSCYRGFQTVKHRNENTCPLPQEMKALFKKKTYDEKKTYDQQKFDSERADGTISSEIKSARGSHHLSIYAENSLKSDGYHKRTDRKSRIIAKNVSTSKPEFEFTTLDFPELQGAENNMSEIQKQPKWGPVHSVSTDISLLREVVKPAAVLSKGEIVVKNNPNESVTANAATNSPSCTRELSWTPMGYVVRQTLSTELSAAPKNVTSMINLKTIASSADPKNVSIPSSEALSSDPSYNKEKHIIHPTQKSKASQGSDLEQNEASRKNKKKKEKSTSKYEVLTVQEPPRIEDAEEFPNLAVASERRDRIETPKFQSKQQPQDNFKNNVKKSQLPVQLDLGGMLTALEKKQHSQHAKQSSKPVVVSVGAVPVLSKECASGERGRRMSQMKTPHNPLDSSAPLMKKGKQREIPKAKKPTSLKKIILKERQERKQRLQENAVSPAFTSDDTQDGESGGDDQFPEQAELSGPEGMDELISTPSVEDKSEEPPGTELQRDTEASHLAPNHTTFPKIHSRRFRDYCSQMLSKEVDACVTDLLKELVRFQDRMYQKDPVKAKTKRRLVLGLREVLKHLKLKKLKCVIISPNCEKIQSKGGLDDTLHTIIDYACEQNIPFVFALNRKALGRSLNKAVPVSVVGIFSYDGAQDQFHKMVELTVAARQAYKTMLENVQQELVGEPRPQAPPSLPTQGPSCPAEDGPPALKEKEEPHYIEIWKKHLEAYSGCTLELEESLEASTSQMMNLNL
# B3: RCN3 (protein, UniProt Q96D15 21-328, looked up)
# Reticulocalbin-3: KPSPDAGPHGQGRVHQAAPLSDAPHDDAHGNFQYDHEAFLGREVAKEFDQLTPEESQARLGRIVDRMDRAGDGDGWVSLAELRAWIAHTQQRHIRDSVSAAWDTYDTDRDGRVGWEELRNATYGHYAPGEEFHDVEDAETYKKMLARDERRFRVADQDGDSMATREELTAFLHPEEFPHMRDIVIAETLEDLDRNKDGYVQVEEYIADLYSAEPGEEEPAWVQTERQQFRDFRDLNKDGHLDGSEVGHWVLPPAQDQPLVEANHLLHESDTDKDGRLSKAEILGNWNMFVGSQATNYGEDLTRHHDEL
# B4: PAK4 (protein, UniProt O96013 1-591, looked up)
# Serine/threonine-protein …: MFGKRKKRVEISAPSNFEHRVHTGFDQHEQKFTGLPRQWQSLIEESARRPKPLVDPACITSIQPGAPKTIVRGSKGAKDGALTLLLDEFENMSVTRSNSLRRDSPPPPARARQENGMPEEPATTARGGPGKAGSRGRFAGHSEAGGGSGDRRRAGPEKRPKSSREGSGGPQESSRDKRPLSGPDVGTPQPAGLASGAKLAAGRPFNTYPRADTDHPSRGAQGEPHDVAPNGPSAGGLAIPQSSSSSSRPPTRARGAPSPGVLGPHASEPQLAPPACTPAAPAVPGPPGPRSPQREPQRVSHEQFRAALQLVVDPGDPRSYLDNFIKIGEGSTGIVCIATVRSSGKLVAVKKMDLRKQQRRELLFNEVVIMRDYQHENVVEMYNSYLVGDELWVVMEFLEGGALTDIVTHTRMNEEQIAAVCLAVLQALSVLHAQGVIHRDIKSDSILLTHDGRVKLSDFGFCAQVSKEVPRRKSLVGTPYWMAPELISRLPYGPEVDIWSLGIMVIEMVDGEPPYFNEPPLKAMKMIRDNLPPRLKNLHKVSPSLKGFLDRLLVRDPAQRATAAELLKHPFLAKAGPPASIVPLMRQNRTR
# B5: SF3B2 (protein, UniProt Q13435 1-895, looked up)
# Splicing factor 3B subunit 2: MATEHPEPPKAELQLPPPPPPGHYGAWAAQELQAKLAEIGAPIQGNREELVERLQSYTRQTGIVLNRPVLRGEDGDKAAPPPMSAQLPGIPMPPPPLGLPPLQPPPPPPPPPPGLGLGFPMAHPPNLGPPPPLRVGEPVALSEEERLKLAQQQAALLMQQEERAKQQGDHSLKEHELLEQQKRAAVLLEQERQQEIAKMGTPVPRPPQDMGQIGVRTPLGPRVAAPVGPVGPTPTVLPMGAPVPRPRGPPPPPGDENREMDDPSVGPKIPQALEKILQLKESRQEEMNSQQEEEEMETDARSSLGQSASETEEDTVSVSKKEKNRKRRNRKKKKKPQRVRGVSSESSGDREKDSTRSRGSDSPAADVEIEYVTEEPEIYEPNFIFFKRIFEAFKLTDDVKKEKEKEPEKLDKLENSAAPKKKGFEEEHKDSDDDSSDDEQEKKPEAPKLSKKKLRRMNRFTVAELKQLVARPDVVEMHDVTAQDPKLLVHLKATRNSVPVPRHWCFKRKYLQGKRGIEKPPFELPDFIKRTGIQEMREALQEKEEQKTMKSKMREKVRPKMGKIDIDYQKLHDAFFKWQTKPKLTIHGDLYYEGKEFETRLKEKKPGDLSDELRISLGMPVGPNAHKVPPPWLIAMQRYGPPPSYPNLKIPGLNSPIPESCSFGYHAGGWGKPPVDETGKPLYGDVFGTNAAEFQTKTEEEEIDRTPWGELEPSDEESSEEEEEEESDEDKPDETGFITPADSGLITPGGFSSVPAGMETPELIELRKKKIEEAMDGSETPQLFTVLPEKRTATVGGAMMGSTHIYDMSTVMSRKGPAPELQGVEVALAPEELELDPMAMTQKYEEHVREQQAQVEKEDFSDMVAEHAAKQKQKKRKAQPQDSRGGSKKYKEFKF
# B6: RBM4 (protein, UniProt Q9BWF3 1-364, looked up)
# RNA-binding protein 4: MVKLFIGNLPREATEQEIRSLFEQYGKVLECDIIKNYGFVHIEDKTAAEDAIRNLHHYKLHGVNINVEASKNKSKTSTKLHVGNISPTCTNKELRAKFEEYGPVIECDIVKDYAFVHMERAEDAVEAIRGLDNTEFQGKRMHVQLSTSRLRTAPGMGDQSGCYRCGKEGHWSKECPIDRSGRVADLTEQYNEQYGAVRTPYTMSYGDSLYYNNAYGALDAYYKRCRAARSYEAVAAAAASVYNYAEQTLSQLPQVQNTAMASHLTSTSLDPYDRHLLPTSGAAATAAAAAAAAAAVTAASTSYYGRDRSPLRRATAPVPTVGEGYGYGHESELSQASAAARNSLYDMARYEREQYADRARYSAF
# B7: SESTD1 (protein, UniProt Q86VW0 1-696, looked up)
# SEC14 domain and spectrin …: MEASVILPILKKKLAFLSGGKDRRSGLILTIPLCLEQTNMDELSVTLDYLLSIPSEKCKARGFTVIVDGRKSQWNVVKTVVVMLQNVVPAEVSLVCVVKPDEFWDKKVTHFCFWKEKDRLGFEVILVSANKLTRYIEPCQLTEDFGGSLTYDHMDWLNKRLVFEKFTKESTSLLDELALINNGSDKGNQQEKERSVDLNFLPSVDPETVLQTGHELLSELQQRRFNGSDGGVSWSPMDDELLAQPQVMKLLDSLREQYTRYQEVCRQRSKRTQLEEIQQKVMQVVNWLEGPGSEQLRAQWGIGDSIRASQALQQKHEEIESQHSEWFAVYVELNQQIAALLNAGDEEDLVELKSLQQQLSDVCYRQASQLEFRQNLLQAALEFHGVAQDLSQQLDGLLGMLCVDVAPADGASIQQTLKLLEEKLKSVDVGLQGLREKGQGLLDQISNQASWAYGKDVTIENKENVDHIQGVMEDMQLRKQRCEDMVDVRRLKMLQMVQLFKCEEDAAQAVEWLSELLDALLKTHIRLGDDAQETKVLLEKHRKFVDVAQSTYDYGRQLLQATVVLCQSLRCTSRSSGDTLPRLNRVWKQFTIASEERVHRLEMAIAFHSNAEKILQDCPEEPEAINDEEQFDEIEAVGKSLLDRLTVPVVYPDGTEQYFGSPSDMASTAENIRDRMKLVNLKRQQLRHPEMVTTES
# B8: SERTAD1 (protein, UniProt Q9UHV2 1-236, looked up)
# SERTA domain-containing …: MLSKGLKRKREEEEEKEPLAVDSWWLDPGHTAVAQAPPAVASSSLFDLSVLKLHHSLQQSEPDLRHLVLVVNTLRRIQASMAPAAALPPVPSPPAAPSVADNLLASSDAALSASMASLLEDLSHIEGLSQAPQPLADEGPPGRSIGGAAPSLGALDLLGPATGCLLDDGLEGLFEDIDTSMYDNELWAPASEGLKPGPEDGPGKEEAPELDEAELDYLMDVLVGTQALERPPGPGR
# B9: SDCCAG8 (protein, UniProt Q86SQ7 1-713, looked up)
# Serologically defined colon …: MAKSPENSTLEEILGQYQRSLREHASRSIHQLTCALKEGDVTIGEDAPNLSFSTSVGNEDARTAWPELQQSHAVNQLKDLLRQQADKESEVSPSRRRKMSPLRSLEHEETNMPTMHDLVHTINDQSQYIHHLEAEVKFCKEELSGMKNKIQVVVLENEGLQQQLKSQRQEETLREQTLLDASGNMHNSWITTGEDSGVGETSKRPFSHDNADFGKAASAGEQLELEKLKLTYEEKCEIEESQLKFLRNDLAEYQRTCEDLKEQLKHKEFLLAANTCNRVGGLCLKCAQHEAVLSQTHTNVHMQTIERLVKERDDLMSALVSVRSSLADTQQREASAYEQVKQVLQISEEANFEKTKALIQCDQLRKELERQAERLEKELASQQEKRAIEKDMMKKEITKEREYMGSKMLILSQNIAQLEAQVEKVTKEKISAINQLEEIQSQLASREMDVTKVCGEMRYQLNKTNMEKDEAEKEHREFRAKTNRDLEIKDQEIEKLRIELDESKQHLEQEQQKAALAREECLRLTELLGESEHQLHLTRQEKDSIQQSFSKEAKAQALQAQQREQELTQKIQQMEAQHDKTENEQYLLLTSQNTFLTKLKEECCTLAKKLEQISQKTRSEIAQLSQEKRYTYDKLGKLQRRNEELEEQCVQHGRVHETMKQRLRQLDKHSQATAQQLVQLLSKQNQLLLERQSLSEEVDRLRTQLPSMPQSDC
# Tested on: HCV ORFs (Gal4-DB fusions)
# Assay: not given
# Type: binding, HCV genotype 1b, isolate con1
# Conditions: human protein listed by gene symbol; the value names the HCV protein it interacts with
# 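Throughout, for IMAP Y2H IMAP1 (number of IST): yeast two-hybrid screens using HCV genotype 1b proteins fused to Gal4-DB as baits against prey cDNA libraries from human spleen and foetal brain, IMAP1 via transformation and IMAP2 via mating.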
# 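Throughout, for Interaction with viral protein: yeast two-hybrid screens using HCV genotype 1b proteins fused to Gal4-DB as baits against prey cDNA libraries from human spleen and foetal brain, IMAP1 via transformation and IMAP2 via mating.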
row,Molecule,Interaction with viral protein
1,B1,NS3
2,B2,NS3
3,B3,NS3
4,B4,CORE
5,B5,NS3
6,B6,NS3
7,B7,NS3
8,B8,NS3
9,B9,NS3

# Molecular target: T1, HCV ORFs (Gal4-DB fusions) (Hepatitis C virus genotype 1b, UniProt Q9WMX2)
# T1 construct: expressed in transfected cells; host or cells: Saccharomyces cerevisiae MAV203 (IMAP1) / AH109 (IMAP2)
# Assay: not given
# Type: binding, HCV genotype 1b, isolate con1
# Conditions: HCV protein CORE as bait; human protein as prey
row,Molecule,IMAP Y2H IMAP1 (number of IST)
1,B4,1

# Same assay, conditions: HCV protein NS3 as bait; human protein as prey
row,Molecule,IMAP Y2H IMAP1 (number of IST)
1,B1,1
2,B2,1
3,B3,2
4,B5,1
5,B6,1
6,B7,1
7,B8,3
8,B9,1

# Molecular target: T2, HCV proteins (Hepatitis C virus genotype 1b, UniProt Q9WMX2)
# T2 construct: expressed in transfected cells
# Assay: Validation by Y2H pairwise matrices;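 note: yeast two-hybrid pairwise tests of interactions first found in Y2H screens of HCV bait proteins against human cDNA libraries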
# Type: binding
# Conditions: validation of interaction with HCV protein CORE
row,Molecule,Y2H matrices
1,B4,+

# Same assay, conditions: validation of interaction with HCV protein NS3
row,Molecule,Y2H matrices
1,B1,+
2,B2,+
3,B3,+
4,B5,+
5,B6,+
6,B7,+
7,B8,+
8,B9,+
